Substitutions are numbered along the chain they refer to.

The values that follow come from patent CN114617961A (BEIJING ORIENTAL BAITAI BIOTECHNOLOGY CO LTD; BEIJING …, dated 2022).

To fix the notation:
T1: LAG-3 (human, UniProt P18627 23-450, limits assumed)
T1 sequence (looked up): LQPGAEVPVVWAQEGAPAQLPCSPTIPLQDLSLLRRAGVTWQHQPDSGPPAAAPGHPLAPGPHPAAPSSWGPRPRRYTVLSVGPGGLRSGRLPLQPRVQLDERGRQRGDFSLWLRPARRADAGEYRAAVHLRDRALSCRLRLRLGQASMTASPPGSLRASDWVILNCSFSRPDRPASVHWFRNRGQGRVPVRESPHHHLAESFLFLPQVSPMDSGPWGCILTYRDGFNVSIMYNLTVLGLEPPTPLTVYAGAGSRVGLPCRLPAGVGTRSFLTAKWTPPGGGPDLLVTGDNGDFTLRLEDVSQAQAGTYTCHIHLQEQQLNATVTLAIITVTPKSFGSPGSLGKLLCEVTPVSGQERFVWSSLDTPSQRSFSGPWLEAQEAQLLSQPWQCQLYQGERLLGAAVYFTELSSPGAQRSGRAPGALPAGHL

B1: 嵌合抗体CA-1 (antibody, human IgG4 S228P, kappa)
heavy: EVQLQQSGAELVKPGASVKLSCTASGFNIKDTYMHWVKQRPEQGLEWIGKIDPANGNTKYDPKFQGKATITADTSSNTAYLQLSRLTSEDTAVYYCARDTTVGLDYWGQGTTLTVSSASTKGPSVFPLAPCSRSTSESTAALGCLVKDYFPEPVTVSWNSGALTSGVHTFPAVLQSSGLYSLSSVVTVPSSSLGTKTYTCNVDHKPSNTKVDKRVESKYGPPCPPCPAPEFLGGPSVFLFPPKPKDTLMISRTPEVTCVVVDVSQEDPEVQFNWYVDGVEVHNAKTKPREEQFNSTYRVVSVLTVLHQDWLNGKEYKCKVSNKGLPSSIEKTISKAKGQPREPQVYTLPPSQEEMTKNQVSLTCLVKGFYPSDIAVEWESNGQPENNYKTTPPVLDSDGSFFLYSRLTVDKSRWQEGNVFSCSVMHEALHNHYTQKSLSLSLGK
light: DIVITQSTAIMSASLGEKVTMSCRASSSVNYMYWYQQKSDASPKLWIYYTSKLASGVPARFSGSGSGTSYSLTISSMEAEDAATYYCQQWSSNPHTFGGGTKLEIKRTVAAPSVFIFPPSDEQLKSGTASVVCLLNNFYPREAKVQWKVDNALQSGNSQESVTEQDSKDSTYSLSSTLTLSKADYEKHKVYACEVTHQGLSSPVTKSFNRGEC
B2: 人源化抗体HA-4 (human IgG4 / human Ck) (antibody, V domains shown)
VH: QVQLVQSGAEVKKPGASVKVSCKASGYNITDTYMHWVRQAPGQGLEWIGKIDPANGNTKYDPKFQGRATITADTSISTAYMELSRLRSDDTAVYYCARDTTVGLDYWGQGTLVTVSS
VL: DIVITQSPAFLSVTPGEKVTITCRASSSVNYMYWYQQKPDASPKLWIYYTSKLASGVPSRFSGSGSGTDYTFTISSLEAEDAATYYCQQWSSNPHTFGGGTKVEIKR
B3: 人源化抗体HA-5 (human IgG4 / human Ck) (antibody, V domains shown)
VH: B2 VH with T30K, R38K, R67K
VL: B2 VL with S59A, D69S
B4: 人源化抗体HA-3 (human IgG4 / human Ck) (antibody, V domains shown)
VH: B2 VH
VL: B2 VL with A41Q, S42A, W46L
B5: 人源化抗体HA-2 (human IgG4 / human Ck) (antibody, V domains shown)
VH: B2 VH with N28T, I29F
VL: B2 VL with A41Q, S42A, W46L
B6: 人源化抗体HA-1 (human IgG4 / human Ck) (antibody, V domains shown)
VH: B2 VH with N28T, I29F
VL: B2 VL
B7: MA-3 鼠源抗体 (mouse IgG1 / mouse Ck) (antibody, V domains shown)
VH: EVKLEESGPELVKPGASVKISCKASGYSFTSYYIHWVKQRPGQGLEWIGWIFPGTGNTRYNEKFKGKATLTADTSSSTVYMQLSGLTSEDSAVYFCARIGGRLTGDAMDYWGQGTSVTVSS
VL: DIVLTQSTASLAVSLGQRATISCRASESVDSYGNSFMHWYQQKPGQPPKLLIYLASNLESGVPARFSGSGSRTDFTLTIDPVEADDAATYYCQQNNEDPWTFGGGTKLEIKA
B8: MA-4 鼠源抗体 (mouse IgG1 / mouse Ck) (antibody, V domains shown)
VH: QVKLEESGPGLVQPSQSLSITCTVSAFSLTTYAVHWVRQSPGKGLEWLGVIWSGGSTDYNTAFISRLNITKDNSKSQVFFKMNSLQANDTAIYYCARLDGTFFDYWGQGTTLTVSS
VL: DIVLTQTPAIMSASLGERVTMTCTASSSVSSSYLHWYQQKPGSSPKLWIYSTSNLASGVPARFSGSGSGTSYSLTISSMEAEDAATYYCHQYHRSPPTFGGGTKLEIKA
B9: MA-2 鼠源抗体 (mouse IgG1 / mouse Ck) (antibody, V domains shown)
VH: EVQLQQSGAELVKPGASVKLSCTASGFNIKDTYMHWVKQRPEQGLEWIGKIDPANGNTKYDPKFQGKATITADTSSNTAYLQLSRLTSEDTAVYYCARDTTVGLDYWGQGTTLTVSS
VL: DIVLTQTPAIMSASLGEKVTMSCRASSSVNYMYWYQQKSDASPKLWIYYTSNLAPGVPARFSGSGSGNSYSLTISSMEGEDAATYYCQQFTSSPSMTFGGGTKLEIKA
B10: MA-1 鼠源抗体 (mouse IgG1 / mouse Ck) (antibody)
heavy: EVQLQQSGAELVKPGASVKLSCTASGFNIKDTYMHWVKQRPEQGLEWIGKIDPANGNTKYDPKFQGKATITADTSSNTAYLQLSRLTSEDTAVYYCARDTTVGLDYWGQGTTLTVSSAKTTPPSVYPLAPGSAAQTNSMVTLGCLVKGYFPEPVTVTWNSGSLSSGVHTFPAVLQSDLYTLSSSVTVPSSTWPSETVTCNVAHPASSTKVDKKIVPRDCGCKPCICTVPEVSSVFIFPPKPKDVLTITLTPKVTCVVVDISKDDPEVQFSWFVDDVEVHTAQTQPREEQFNSTFRSVSELPIMHQDWLNGKEFKCRVNSAAFPAPIEKTISKTKGRPKAPQVYTIPPPKEQMAKDKVSLTCMITDFFPEDITVEWQWNGQPAENYKNTQPIMDTDGSYFVYSKLNVQKSNWEAGNTFTCSVLHEGLHNHHTEKSLSHSPG
light: DIVITQSTAIMSASLGEKVTMSCRASSSVNYMYWYQQKSDASPKLWIYYTSKLASGVPARFSGSGSGTSYSLTISSMEAEDAATYYCQQWSSNPHTFGGGTKLEIKADAAPTVSIFPPSSEQLTSGGASVVCFLNNFYPKDINVKWKIDGSERQNGVLNSWTDQDSKDSTYSMSSTLTLTKDEYERHNSYTCEATHKTSTSPIVKSFNRNEC

For the first assay, the target named is T1, LAG-3. In words: cell-based or functional assay.
With B1, the “EC50 of T cell proliferation (CCK8) in mixed lymphocyte reaction” value (shortened to “EC50 of T cell proliferation (CCK8)”) was 0.00723 µg/mL.

Regarding B2, the “EC50 of T cell proliferation (CCK8)” value came out at 0.0338 µg/mL.

On to B3, for which the “EC50 of T cell proliferation (CCK8)” value is 0.0318 µg/mL.

With B4, the “EC50 of T cell proliferation (CCK8)” value stood at 0.015 µg/mL.

Turning to B5, the “EC50 of T cell proliferation (CCK8)” value was determined as 0.0271 µg/mL.

Turning to B6, the “EC50 of T cell proliferation (CCK8)” value came to 0.00688 µg/mL.

Another assay deals with T1, LAG-3. The assay can be described thus: cell-based or functional assay. This is another data set of the same source.
For B7, the “EC50 of IL-2 secretion in mixed lymphocyte reaction (CD4+ T cells + DC, 5 days)” value (“EC50 of IL-2 secretion” for short) is 0.076 µg/mL.

B8: the “EC50 of IL-2 secretion” value came out at 0.121 µg/mL.

For the molecule B9, the “EC50 of IL-2 secretion” value is 0.03 µg/mL.

For B10, the “EC50 of IL-2 secretion” value was found to be 0.024 µg/mL.
